Experimental data from patent publication US20240294610A1, “PEPTIDE FOR TREATING AGE-RELATED MACULAR DEGENERATION” (DAIICHI SANKYO COMPANY, LIMITED, priority 2016, published 2024).
Where a chain is given by its changes, count along the chain named.

Tests used:
[1] = system: retinal damage induced by light exposure; assay: Rat model of retinal damage induced by light exposure; format: in vivo
Procedure: Rat models of retinal damage induced by light exposure are models that induce the cell death of retinal photoreceptor cells by light exposure and are universally used as model animals of retinal degeneration (Daniel T. Organisciak et al., (1996) Invest Ophthalmol Vis Sci. Vol. 37 (No. 11): p. 2243-2257). A 0.5% (W/V) tropicamide-0.5% phenylephrine hydrochloride ophthalmic solution was ocularly instilled under adaptation to darkness to rats adapted to darkness for 72 hours. Then, the rats were exposed to white light of 5500 Lux for 3 hours. The rats thus exposed were adapted again to darkness for about 24 hours and then raised for 2 days under light-dark conditions of ordinary raising. After euthanasia, the eyeballs were excised and fixed by dipping in a 3.7% (W/V) formaldehyde-0.5 to 1% (W/V) methanol-0.2% (W/V) picric acid fixative for 24 hours or longer. After paraffin embedding, thin sliced sections were prepared. The sections were stained with hematoxylin-eosin, and a nucleus count in an outer nuclear layer at the cross-section of the retina was determined to evaluate retinal damage. […] Immediately before light exposure of rats, 5 micro L of HTRA1-inhibiting peptide […] having a concentration of 0.04 mg/mL or 0.2 mg/mL was intravitreally administered under anesthesia. n=4 for a normal saline administration group, and n=5 for the other groups. […] The retinal protective effects of three HTRA1-inhibiting peptides prepared in Example 6 were evaluated using the rat models of retinal damage induced by light exposure, constructed in Example (5-1). The operation followed Example 5. n=6 for all groups.

ARPE-19 cells = assay: VEGF mRNA induction test using human retinal pigment epithelial cell ARPE-19; format: cell-based; settings: H2O2 500 μM, normal human serum complement 25%, HTRA1 1 μM, peptide 1 μM, 4 hours
Procedure: ARPE-19 cells were cultured until confluent in 12 mm Transwell with 0.4 μm Pore Polyester Membrane Insert, Sterile (Corning Inc.) under conditions of 37° C. and 5% CO2 using a DMEM/F-12 medium (Wako Pure Chemical Industries, Ltd.) containing 10% fetal bovine serum (FBS) and penicillin-streptomycin (Thermo Fisher Scientific Inc.). Then, the cells were cultured in FBS-free DMEM/F-12 for 5 days. H2O2 (final concentration: 500 μM) was added to the upper and lower layers of the chamber, and normal human serum complement (Quidel Corp.) (final concentration: 25%) was added to the upper layer of the chamber. […] Four hours later, the culture supernatant was removed, and the cells were washed with PBS. Then, mRNA was extracted using SuperPrep™ Cell Lysis & RT Kit for qPCR (Toyobo Co., Ltd.) and subjected to reverse transcription reaction. The mRNA level of VEGF was quantitatively analyzed by TaqMan Gene Expression Assays (Hs000900055_m1 and Hs02786624_g1; Thermo Fisher Scientific Inc.) using 7900HT Fast Real-Time PCR System (Applied Biosystems, Inc.). GAPDH was used in the correction of the mRNA level.

[2] = system: human umbilical vein endothelial cells (HUVEC); assay: HUVEC migration test; format: cell-based; settings: 300 nM peptide in EGM growth medium; 2 hours
Procedure: HUVEC (Kurabo Industries Ltd.) was cultured for 18 hours under conditions of 37° C. and 5% CO2 in a medium (0.1% BSA-containing serum-free EGM) in which EBM™-2 basal medium (Lonza Walkersville, Inc.) containing 0.1% BSA was supplemented with EGM™-2 SingleQuots™ additive factor set except for serum and VEGF. Then, the cells were adjusted to 4×10^5 cells/mL with 0.1% BSA-containing serum-free EGM. 4×10^5 cells/mL of the HUVEC suspension was added at 50 μL/well to the upper layer of a chamber of Corning FluoroBlok HTS 96 Well Multiwell Permeable Support System with 3.0 μm High Density PET Membrane (Corning Inc.) having a gelatin-coated membrane. Then, each sample described below (medium 1, 2 or 3) was added at 210 μL/well to the lower layer of the chamber (n=3). […]
FluoroBlok HTS 96 Well Multiwell Support System supplemented with the cells and the sample was incubated for 2 hours under conditions of 37° C. and 5% CO2. […] The fluorescence intensity (excitation wavelength/fluorescence wavelength: 485 nm/535 nm) of each well was measured using a plate reader (ARVO-MX, PerkinElmer, Inc.), and the migrated cells were counted for each well according to the following expression.
Migrated cells=Mean fluorescence intensity of wells containing HUVEC (n=3)−Mean fluorescence intensity of blank wells (n=3).

RPE cells = assay: Rabbit retinal damage model by loading with high-fat diet containing hydroquinone (HFD-HQ); format: in vivo; settings: HFD-HQ-loaded 3-year-old rabbits; 50 μL of 40 mg/mL intravitreally after 2 months of feeding; evaluated after 4 months
Description: Retinal damage models prepared using high-fat diet (HFD) and hydroquinone (HQ) are models in which oxidative stress is induced by a pro-oxidant to cause retinal damage. These models have been reported only for mice (Diego G. Espinosa-Heidmann et al., (2006) Invest Ophthalmol Vis Sci., Vol. 47 (No. 2): p. 729-737). Accordingly, 3-year-old JW rabbits were fed for 4 months with RC4 (Oriental Yeast Co., Ltd.) diet containing 1.5% (W/V) coconut oil-0.25% (W/V) cholesterol-1.5% (W/V) peanut oil-2.4% (W/V) hydroquinone (HFD-HQ) to construct rabbit retinal damage models. After euthanasia, the eyeballs were excised, and the anterior segment of the eye was removed by an external incision of about 5 mm from the corneal limbus. The vitreous body was further separated. Then, retina-choroid-sclera was fixed by dipping in 4% (W/V) paraformaldehyde fixative for 24 hours or longer. […] The stained choroid was observed under a fluorescence microscope (BZ-9000; Keyence Corp.). The area of stained retinal pigment epithelial (RPE) cells was determined to evaluate RPE cell damage.
The retinal protective effect of the HTRA1-inhibiting peptide H308 prepared in Example 1 was evaluated using the rabbit models. […]
After 4 months from the start of feeding, RPE cell hypertrophy in the model animals was evaluated. […]

HTRA1 (cat) = molecular target: T1, HTRA1 (cat) (Homo sapiens, UniProt Q92743); assay: HTRA1 (cat) inhibitory activity using peptide substrate H2-Opt (Example 3-1); format: biochemical; settings: method of (3-1); peptide 1.875 to 1,000 nM
T1 construct: The protease domain (158Gly to 373Lys), except for the N-terminal domain and the PDZ domain, of human HTRA1 (Q92743); made in house; host or cells: E. coli BL21 (DE3)
T1 sequence (Q92743 158-373): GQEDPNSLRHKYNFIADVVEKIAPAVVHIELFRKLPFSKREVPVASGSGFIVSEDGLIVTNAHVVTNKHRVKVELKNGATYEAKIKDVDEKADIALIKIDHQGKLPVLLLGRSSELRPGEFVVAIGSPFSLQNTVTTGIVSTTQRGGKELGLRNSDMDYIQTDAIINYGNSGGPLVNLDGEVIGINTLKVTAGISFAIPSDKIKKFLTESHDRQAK
Procedure: The protease domain (158Gly to 373Lys), except for the N-terminal domain and the PDZ domain, of human HTRA1 (Q92743) was used as HTRA1 (cat) to construct a HTRA1 (cat) expression vector. The desired DNA fragment was amplified by PCR ((94° C. for 15 sec, 60° C. for 30 sec, and 68° C. for 45 sec)×30 cycles) with a human HTRA1-inserted plasmid (GeneCopoeia, Inc.; GC-M0558) as a template using the following primers and KOD-plus-(Toyobo Co., Ltd.).
A substrate peptide H2-Opt (Mca-IRRVSYSFK(Dnp)K) (Peptide Institute, Inc.: SEQ ID NO: 54, FIG. 8) was dissolved at 10 mM in DMSO, diluted with an assay buffer (50 mM borate and 150 mM NaCl, pH 8.5), and used at a final concentration of 10 μM. HTRA1 (HTRA1 (cat) or HTRA1 (full)) and each HTRA1-inhibiting peptide diluted with an assay buffer were mixed at 25 μL each and reacted at 37° C. for 20 minutes. Then, 50 μL of the substrate diluted with an assay buffer was added thereto. A fluorescent signal (excitation at 328 nm/emission at 393 nm) was measured using Enspire (PerkinElmer, Inc.). […]
The substrate peptide decomposition rate of the HTRA1-inhibiting peptide at each concentration was calculated. When the decomposition rate at an inhibitor concentration of 0 nM was defined as 100%, the HTRA1 (cat) and HTRA1 (full) inhibitory activity of each HTRA1-inhibiting peptide was evaluated (FIGS. 2 and 3).

B1: H308_D1G_S16A: H308 derivative, 1Asp substituted by Gly and 16Ser by Ala, SEQ ID NO: 24 (FIG. 36) (protein)
chain: GPQFGLFSKYRTPNCADHAGMACVALYEPVCGSDMSTYENECVLCMKIREGGHNIKIIRNGPCGG
modifications: peptide H308_D1G_S16A
nucleus count in an outer nuclear layer at the cross-section of the retina ([1]; 0.2 and 1 μg/eye, n=6): suppressed decrease in nucleus count in an outer nuclear layer
expression of VEGF mRNA (ARPE-19 cells): confirmed to suppress the expression of VEGF
migration of HUVEC induced in the serum-containing medium [2]: suppressive effect on the migration of HUVEC

B2: H321AT_D1G_S16A: peptide derivative, amino acid sequence SEQ ID NO: 28 (FIG. 40) (protein)
chain: B1 chain with H18F, A19D, V24Y, L26F, E39A, V43T
modifications: peptide H321AT_D1G_S16A
nucleus count in an outer nuclear layer at the cross-section of the retina ([1]; 0.2 and 1 μg/eye, n=6): suppressed decrease in nucleus count in an outer nuclear layer

B3: H322AT_D1G_S16A: peptide derivative, amino acid sequence SEQ ID NO: 29 (FIG. 41) (protein)
chain: B1 chain with D17Q, A19E, V24Y, E39A, V43T
modifications: peptide H322AT_D1G_S16A
nucleus count in an outer nuclear layer at the cross-section of the retina ([1]; 0.2 and 1 μg/eye, n=6): suppressed decrease in nucleus count in an outer nuclear layer

B4: H308: SPINK2 mutant HTRA1-inhibiting peptide, amino acid sequence SEQ ID NO: 9 (FIG. 21) (protein)
chain: B1 chain with G1D, A16S
modifications: peptide H308
nucleus count in an outer nuclear layer at the cross-section of the retina ([1]; 5 micro L of 0.04 mg/mL or 0.2 mg/mL intravitreally immediately before light exposure): effect of suppressing decrease in nucleus count in an outer nuclear layer was confirmed
hypertrophy of RPE cells, average area (RPE cells): exhibited a suppressive effect on the hypertrophy of RPE cells
hypertrophy of RPE cells, number of RPE cells having a cell area of 1500 μm^2 or larger (RPE cells): exhibited a suppressive effect on the hypertrophy of RPE cells

B5: wild-type SPINK2: human serine protease inhibitor Kazal-type 2, control, amino acid sequence SEQ ID NO: 1 (FIG. 13) (protein, listed as Homo sapiens)
chain: DPQFGLFSKYRTPNCSQYRLPGCPRHFNPVCGSDMSTYANECTLCMKIREGGHNIKIIRNGPC
HTRA1 (cat) inhibitory activity (decomposition rate of peptide substrate) (HTRA1 (cat)): no HTRA1 inhibitory activity
